According to patent publication US20240173421A1 (Seagen, published 2024):
Like-named read-outs stand apart in the source and are kept apart here. Blank lines part the entries; values can stand above or below the binder they belong to.

How the values were obtained:
[1] = biological target: T1, CD16a (FcγRIIIa) on Jurkat NFAT reporter cells (UniProt P08637 17-254, limits assumed); assay: cell-based or functional assay
[2] = biological target: FcgRIa (NFAT activity assay) (UniProt P12314 16-374); assay: cell-based or functional assay
[3] = biological target: T2, FcgRIIa (NFAT activity assay) (UniProt P12318 34-317); assay: cell-based or functional assay
T2 sequence (looked up): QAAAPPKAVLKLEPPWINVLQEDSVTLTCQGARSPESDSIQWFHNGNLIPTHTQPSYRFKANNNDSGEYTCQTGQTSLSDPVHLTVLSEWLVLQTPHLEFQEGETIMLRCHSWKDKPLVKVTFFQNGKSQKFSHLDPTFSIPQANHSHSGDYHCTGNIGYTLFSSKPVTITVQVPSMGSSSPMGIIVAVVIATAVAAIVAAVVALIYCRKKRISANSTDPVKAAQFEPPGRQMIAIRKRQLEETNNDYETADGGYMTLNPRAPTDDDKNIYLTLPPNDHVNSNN

[4] = biological target: T1, CD16a (FcγRIIIa) on Jurkat NFAT …; assay: cell-based or functional assay; remark: listed apart in the source
[5] = biological target: T1, CD16a (FcγRIIIa) on Jurkat NFAT …; assay: cell-based or functional assay; remark: listed apart in the source
[6] = biological target: T3, FcgRIIb (human, UniProt P31994 43-217, biotinylated); assay: BLI, FcγR-monomeric Fc fusion on streptavidin sensor
T3 sequence (looked up): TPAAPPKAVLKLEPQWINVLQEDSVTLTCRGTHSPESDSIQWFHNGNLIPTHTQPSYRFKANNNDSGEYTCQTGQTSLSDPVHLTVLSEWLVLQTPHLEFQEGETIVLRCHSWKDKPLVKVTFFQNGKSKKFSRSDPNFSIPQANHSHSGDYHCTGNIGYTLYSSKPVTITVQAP

[7] = biological target: T1, CD16a (FcγRIIIa) on Jurkat NFAT …; assay: cell-based or functional assay; remark: listed apart in the source
[8] = biological target: T1, CD16a (FcγRIIIa) on Jurkat NFAT …; assay: cell-based or functional assay; remark: listed apart in the source
[9] = biological target: T1, CD16a (FcγRIIIa) on Jurkat NFAT …; assay: cell-based or functional assay; remark: listed apart in the source
[10] = biological target: T1, CD16a (FcγRIIIa) on Jurkat NFAT …; assay: cell-based or functional assay; remark: listed apart in the source

Chain of FcgRIa (NFAT activity assay) (P12314 16-374): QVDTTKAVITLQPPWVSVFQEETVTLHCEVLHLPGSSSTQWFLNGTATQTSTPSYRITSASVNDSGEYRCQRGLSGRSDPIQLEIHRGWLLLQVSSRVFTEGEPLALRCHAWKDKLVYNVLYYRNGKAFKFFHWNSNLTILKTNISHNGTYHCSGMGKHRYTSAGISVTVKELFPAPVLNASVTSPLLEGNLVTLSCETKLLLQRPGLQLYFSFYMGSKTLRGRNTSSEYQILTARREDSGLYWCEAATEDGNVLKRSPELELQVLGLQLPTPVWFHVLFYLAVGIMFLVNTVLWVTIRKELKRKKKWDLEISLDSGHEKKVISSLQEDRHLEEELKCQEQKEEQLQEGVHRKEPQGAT
T1 sequence (P08637 17-254 limits assumed): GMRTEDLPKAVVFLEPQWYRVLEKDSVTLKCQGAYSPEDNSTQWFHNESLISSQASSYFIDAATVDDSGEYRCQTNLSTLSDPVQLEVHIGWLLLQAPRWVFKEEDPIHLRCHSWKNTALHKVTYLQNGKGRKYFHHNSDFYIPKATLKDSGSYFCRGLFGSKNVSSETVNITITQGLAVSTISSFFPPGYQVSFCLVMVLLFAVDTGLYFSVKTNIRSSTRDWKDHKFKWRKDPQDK

B4: Anti-CD40-AF-1(6) (antibody, human IgG1, kappa)
heavy: not shown
light: DIQMTQSPSSLSASVGDRVTITCRSSQSLVHSNGNTFLHWYQQKPGKAPKLLIYTVSNRFSGVPSRFSGSGSGTDFTLTISSLQPEDFATYFCSQTTHVPWTFGQGTKVEIKRTVAAPSVFIFPPSDEQLKSGTASVVCLLNNFYPREAKVQWKVDNALQSGNSQESVTEQDSKDSTYSLSSTLTLSKADYEKHKVYACEVTHQGLSSPVTKSFNRGEC
modifications: afucosylated N-glycan; compound 1 (disulfide-PEG12) on reduced interchain-disulfide cysteines, 6 per antibody, sites not stated
notes: 6 BPM per antibody; also called Anti-CD40-AF-1 6-load
- Kd [6]: 25 µM

B6: Anti-CD40-AF-1(8) (antibody)
heavy: not shown
light: DIQMTQSPSSLSASVGDRVTITCRSSQSLVHSNGNTFLHWYQQKPGKAPKLLIYTVSNRFSGVPSRFSGSGSGTDFTLTISSLQPEDFATYFCSQTTHVPWTFGQGTKVEIKRTVAAPSVFIFPPSDEQLKSGTASVVCLLNNFYPREAKVQWKVDNALQSGNSQESVTEQDSKDSTYSLSSTLTLSKADYEKHKVYACEVTHQGLSSPVTKSFNRGEC
modifications: reduced interchain-disulfide cysteine carries compound 1; afucosylated N-glycan; reduced interchain-disulfide cysteines carry compound 1 (disulfide-PEG12)
- EC50 (read off the curve), FcγRIIIa NFAT reporter assay [7]: ~0.007 µg/mL

B7: Anti-CD40-AF-1(2) (antibody, human IgG1, kappa)
heavy: not shown
light: DIQMTQSPSSLSASVGDRVTITCRSSQSLVHSNGNTFLHWYQQKPGKAPKLLIYTVSNRFSGVPSRFSGSGSGTDFTLTISSLQPEDFATYFCSQTTHVPWTFGQGTKVEIKRTVAAPSVFIFPPSDEQLKSGTASVVCLLNNFYPREAKVQWKVDNALQSGNSQESVTEQDSKDSTYSLSSTLTLSKADYEKHKVYACEVTHQGLSSPVTKSFNRGEC
modifications: afucosylated N-glycan; compound 1 (disulfide-PEG12) on reduced interchain-disulfide cysteines, 2 per antibody, sites not stated
notes: 2 BPM per antibody; also called Anti-CD40-AF-1 2-load
- EC50 (read off the curve), FcγRIIIa NFAT reporter assay [8]: ~0.003 µg/mL
- Kd [6]: 21 µM

B9: Anti-CD40-AF-1(4) (antibody, human IgG1, kappa)
heavy: not shown
light: DIQMTQSPSSLSASVGDRVTITCRSSQSLVHSNGNTFLHWYQQKPGKAPKLLIYTVSNRFSGVPSRFSGSGSGTDFTLTISSLQPEDFATYFCSQTTHVPWTFGQGTKVEIKRTVAAPSVFIFPPSDEQLKSGTASVVCLLNNFYPREAKVQWKVDNALQSGNSQESVTEQDSKDSTYSLSSTLTLSKADYEKHKVYACEVTHQGLSSPVTKSFNRGEC
modifications: afucosylated N-glycan; compound 1 (disulfide-PEG12) on reduced interchain-disulfide cysteines, 4 per antibody, sites not stated
notes: 4 BPM per antibody; also called Anti-CD40-AF-1 4-load
- Kd [6]: 22 µM

B10: Anti-CD40-AF (afucosylated) (antibody, human IgG1, kappa)
heavy: not shown
light: DIQMTQSPSSLSASVGDRVTITCRSSQSLVHSNGNTFLHWYQQKPGKAPKLLIYTVSNRFSGVPSRFSGSGSGTDFTLTISSLQPEDFATYFCSQTTHVPWTFGQGTKVEIKRTVAAPSVFIFPPSDEQLKSGTASVVCLLNNFYPREAKVQWKVDNALQSGNSQESVTEQDSKDSTYSLSSTLTLSKADYEKHKVYACEVTHQGLSSPVTKSFNRGEC
- EC50, NFAT activity assay [1]: 0.05 µg/mL
- EC50, NFAT activity assay [2]: 0.07 µg/mL
- EC50, NFAT activity assay [3]: 0.09 µg/mL
- EC50 (read off the curve), FcγRIIIa NFAT reporter assay [5]: ~0.001 µg/mL
- EC50 (read off the curve), FcγRIIIa NFAT reporter assay [9]: ~0.001 µg/mL
- EC50 (read off the curve), FcγRIIIa NFAT reporter assay [8]: ~0.01 µg/mL
- EC50 (read off the curve), FcγRIIIa NFAT reporter assay [4]: ~0.01 µg/mL
- EC50 (read off the curve), CD16a NFAT reporter assay [10]: ~0.003 µg/mL

Other lines, results leading:

- EC50, NFAT activity assay [1]: 0.16 µg/mL
- EC50, NFAT activity assay [2]: 0.09 µg/mL
- EC50, NFAT activity assay [3]: 0.08 µg/mL
B1: Anti-CD40-WT (antibody, human IgG1, kappa)
heavy: not shown
light: DIQMTQSPSSLSASVGDRVTITCRSSQSLVHSNGNTFLHWYQQKPGKAPKLLIYTVSNRFSGVPSRFSGSGSGTDFTLTISSLQPEDFATYFCSQTTHVPWTFGQGTKVEIKRTVAAPSVFIFPPSDEQLKSGTASVVCLLNNFYPREAKVQWKVDNALQSGNSQESVTEQDSKDSTYSLSSTLTLSKADYEKHKVYACEVTHQGLSSPVTKSFNRGEC

- EC50 (read off the curve), FcγRIIIa NFAT reporter assay [4]: ~0.001 µg/mL
B2: Anti-CD40-AF-12 with 2 load (antibody, human IgG1, kappa)
heavy: not shown
light: DIQMTQSPSSLSASVGDRVTITCRSSQSLVHSNGNTFLHWYQQKPGKAPKLLIYTVSNRFSGVPSRFSGSGSGTDFTLTISSLQPEDFATYFCSQTTHVPWTFGQGTKVEIKRTVAAPSVFIFPPSDEQLKSGTASVVCLLNNFYPREAKVQWKVDNALQSGNSQESVTEQDSKDSTYSLSSTLTLSKADYEKHKVYACEVTHQGLSSPVTKSFNRGEC
modifications: afucosylated N-glycan; compound 12 (maleimidocaproyl-PEG12) on reduced interchain-disulfide cysteines, 2 per antibody, sites not stated

- EC50 (read off the curve), FcγRIIIa NFAT reporter assay [5]: ~0.007 µg/mL
B3: Anti-CD40-AF-17 (antibody, human IgG1, kappa)
heavy: not shown
light: DIQMTQSPSSLSASVGDRVTITCRSSQSLVHSNGNTFLHWYQQKPGKAPKLLIYTVSNRFSGVPSRFSGSGSGTDFTLTISSLQPEDFATYFCSQTTHVPWTFGQGTKVEIKRTVAAPSVFIFPPSDEQLKSGTASVVCLLNNFYPREAKVQWKVDNALQSGNSQESVTEQDSKDSTYSLSSTLTLSKADYEKHKVYACEVTHQGLSSPVTKSFNRGEC
modifications: reduced interchain-disulfide cysteine carries compound 17; afucosylated N-glycan; reduced interchain-disulfide cysteines carry compound 17 (maleimidocaproyl-(PEG4)2)

- EC50 (read off the curve), FcγRIIIa NFAT reporter assay [4]: ~0.002 µg/mL
B5: Anti-CD40-AF-12 with 4 load (antibody, human IgG1, kappa)
heavy: not shown
light: DIQMTQSPSSLSASVGDRVTITCRSSQSLVHSNGNTFLHWYQQKPGKAPKLLIYTVSNRFSGVPSRFSGSGSGTDFTLTISSLQPEDFATYFCSQTTHVPWTFGQGTKVEIKRTVAAPSVFIFPPSDEQLKSGTASVVCLLNNFYPREAKVQWKVDNALQSGNSQESVTEQDSKDSTYSLSSTLTLSKADYEKHKVYACEVTHQGLSSPVTKSFNRGEC
modifications: afucosylated N-glycan; compound 12 (maleimidocaproyl-PEG12) on reduced interchain-disulfide cysteines, 4 per antibody, sites not stated

- EC50, NFAT activity assay [1]: 2.09 µg/mL
- EC50, NFAT activity assay [2]: 3.73 µg/mL
- EC50, NFAT activity assay [3]: 227 µg/mL
B8: Anti-CD40-AF-10 (antibody, human IgG1, kappa)
heavy: not shown
light: DIQMTQSPSSLSASVGDRVTITCRSSQSLVHSNGNTFLHWYQQKPGKAPKLLIYTVSNRFSGVPSRFSGSGSGTDFTLTISSLQPEDFATYFCSQTTHVPWTFGQGTKVEIKRTVAAPSVFIFPPSDEQLKSGTASVVCLLNNFYPREAKVQWKVDNALQSGNSQESVTEQDSKDSTYSLSSTLTLSKADYEKHKVYACEVTHQGLSSPVTKSFNRGEC
modifications: reduced interchain-disulfide cysteine carries compound 10; afucosylated N-glycan; reduced interchain-disulfide cysteines carry compound 10 (maleimidopropionyl-PEG48)

- EC50, NFAT activity assay [1]: 0.22 µg/mL
- EC50, NFAT activity assay [2]: 0.35 µg/mL
- EC50, NFAT activity assay [3]: 14.3 µg/mL
B11: Anti-CD40-AF-9(8) (antibody, human IgG1, kappa)
heavy: not shown
light: DIQMTQSPSSLSASVGDRVTITCRSSQSLVHSNGNTFLHWYQQKPGKAPKLLIYTVSNRFSGVPSRFSGSGSGTDFTLTISSLQPEDFATYFCSQTTHVPWTFGQGTKVEIKRTVAAPSVFIFPPSDEQLKSGTASVVCLLNNFYPREAKVQWKVDNALQSGNSQESVTEQDSKDSTYSLSSTLTLSKADYEKHKVYACEVTHQGLSSPVTKSFNRGEC
modifications: reduced interchain-disulfide cysteine carries compound 9; afucosylated N-glycan; reduced interchain-disulfide cysteines carry compound 9 (maleimidopropionyl-PEG12)
